Assay results from the NTF2 design screens of Basanta et al. (2020).

Test: protease stability score; higher = more stable; yeast display proteolysis, trypsin and chymotrypsin;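 note: relative to predicted unfolded state with 0 unfolded-like and 1 meaning tenfold more protease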

Sequence	protease stability score
SELEEITEKAIRMDLQHEETGDWKKYSDMIDPHARFIVNGVEFVGRHFLLKWFLDVAKRVDHSRMHVDHEEHVDGRIHVDFRFELIFDGREYRIRSHIVADKIDGQWYFRQIRFQ	1.29
SEEDEVTEKLVRLMIHAHHTGDEDLLKTLADPNVRLTIDYNGVKLTSHGREEFVRLLREWKRQIRIEDRKTTESHVYGNFAINNHVELGEFDGRRDRFEVRLHFVVFNGRVKEEKIKFD	1.45
SEDEEALKKAIDLLFESLLTGDERELEKLADPNYRMEVNGKEIHGRELFSKTMIDILQRLGIDHIDFRIEHDETQGDKVIIEGKLIFKVGDKHIEIKSRLIVLKVDGQWILRHSRMH	2.05
DHEEKHLEHFLHLITHLEHTGDERTLEKLVDPHVRHEFNGKELHGRERAVRWSEELRQKMGADHWSIKRVNVFDGVVHLHTELEVNGVRVHFHIDVRVVDGRVKHIKIRNE	0.861
DEHTHEAHKFLREYWSNLQTGDEEKIINLVDPRVRMIINGKELHGREEFSKALHDEYRRMGMTIQTFTLQHLEIQGEKVHADVEIITHYDGRHTSIHLHLIVQKINGRWLMREVEIR	1.32
DDALRHADTLLDQFEHHMETGDEESMTRLADPDTRTDINGQHFHGRDWWREFMRRVDHHHIRSVDYHSVRLFNGQIHFDVEIDVEIVIGDKRYRTRYHFEVVIVKIDGRWLLHRIKTE	0.861
DEIDELMEMMARILIRLWQTGDEETWSRLADPDVRVTIGEFHTHGMERALLIIQEIRRHWRIHHIHIHDMRVFENRSRVNGKVDGEIDGQKDVRETRIEVVLIDGRLQEVRVKTK	0.91
DDHEKDLTDMARRNYHWWKTGDFDRVIDLLDPTTRLIVGDKKFHGWDEFSHALELFRKQLRPNDSKLKREEVYGDKMVIHSHLHGTVDGKEVHHDVIFTFVIIDGRIHLIIIEPR	0.516
HESTEYADYMLKFLSLVESTGNEDLFKRLFDPDVRLVINGVDTHGWESYHEHRKRVDHKEVEHSEIKHVEVQGEKIIVHGILHVRVKIGDKRFSFEIRFHLIVHKFNGKWHITSIEFH	0.848
DRHEKIALEMARIILELLYTGDEDTFKHLADPNVKLHLDINGRHFEHHGREEHEKWSRELERHMRITDIKIDDEKVQGDWVHIDSTIVMRIGDKSSIHKMHFIFQIVDGRIKNMEVVIK	1.38
DEDRKMAEHWIRIWYHLVETGDEEEINNFADPHTRMEVNGVEFHGRELVKHSNHKLLRDAGVDKIHVEIHEMRVIGNKVEIHGTIRFNGQEYHFILIVLKVNGRWVIESMKHE	0.724
DETREEVYEMAVRILENEITGDWKKLYDLVDPDTRLDINGRHVIGREEMIKLFEWWLKHIRIKEIRLSHVEAVNGKADLKSNVHGTIDGVEHDVRRTIHIDIVDGRVKRIEVRTR	1.29
DRHERKKVAKDFNEALETNDHEQLMEQMDPNARIKYGDKHYHGREDLRRFWKKLVDSVDHITVDKMQVRGEEVVVLAKAESNGRNETFRLVMEFHNGRIKFVRKDTP	1.05
SEEEELWKMVDHLVHEWLRTGDEDTFSHYADPHARSIVNGKELHGREEFSNLVHKLKEQYPNLTLTIDELRSVGDKITLHITEEFNGVRYDVRIYALKVNGKWLHRYVEVR	1.54
DDMHEVAKQLMEELVRNWITGNEDNVRHLLDPDVRIIIGDFIFHGRESLELLLHFYNKHIRWTDYKVHDFRIQGDYLHMDTRLIGIIDGRHVILETQMVAVKINGRWRVKSLEVR	2.11
DEEEELNRRLVELMIRWHETGDFDMIEKYMDPDAKLNINGQEIHGMEKITNLFLWRFEFFKGAQYRMNRVRVQGDKASIDGRLNVDGRTHSIEIRIVIINGRNHSIEIHDR	1.41
DEDDKLLEKWVKDLREALRTGDEQTLLKLIDPNTRLEIGDKDFHGREVIVKLWKDLGMEIRDVKVHDIKRQGDFLELDIRIDVIINGVRENREHKIYALKVNGKWFVKTQIDE	2.13
DKEEELVKKFLELWLHALRTGDEDFIRELFDPHARFVFDGRDFHGMEEFIRIMRHIRFHHIHLHHFDLQGDYVRLDTRVDGNVDGKRVTINTHMIMHKVNGRWVLESYTID	0.839
DEDTEIALKLHRLILHFIHTGDWENFAKYLDPRTKLHVGEFNNVGMEEIRKTWKHLRLRIDMYDERRVEVIDGRLHVEGEIRSTVHIGDKELHFERDSNFILVVINGRVKRIEINIV	1.47
NEDEEHFKKWFEKYLRSLRTGDEENTRKLFDPHVRIEFENHELHGWENAVRFFRELHHRADVIHLELHDYTIVGDYVYIDVIVHLIYNGREFRHDVKIDASKIDGQWRIESLSIK	1.64
TEEHEEARRAMKIIVDLLDTGDWKTISRYFDPNVRFEVGDKTYHGREEVLNRFIELGHSNIDVKLHHMELYGDKVVIDSRMNVDGRTHEIEWHSRKYNGRWRLHELHVR	1.12
DEHEDHVLEVFRIILEILLTGDFREWRRLADPTVRLEFNGREYHGRDEILEFLTQHIRHWRLKHIHIDNYEVYDGRIEVHGHIRFTFNGKEHIIETRIIINVFDGRLHDEQYITH	1.53
SEDEKIMEEASRLFMHLFLTGDEETLMRLADPNTRIVFNGQDHHGREEWTKVLRDLGIKHSHIEHVNLRTQGDKVDLNVHVNVHIDGRTRRYLIIVHATKINGRWEIKEIQVHEH	0.989
SHEEHEMHNALKLLLDAWRTGDEDSLNNNADPRMKIKVNGKEFVGMEHMTHFLRELLEELRFTDSTVTELDIVNGVLISVTRLHIEVGDKRMDFHTRLVFTKVNGRWRLHSLVLI	1.99
SEDHERERRVNEEFLTAMWTGDEKWIMNLADPNVRTEWNGVENIGRETISEHLDHQKKRLGVKHIEIKHVEIINGVLHMHGRLDVNGVETEVIIRSFIIDGRLTELIFEIR	0.819

Sequence	protease stability score
DEEERDSRIALEIWLHNVRTGDEKSERDNLDPHVRYIVDGRDYIGREDFLHMMSQIRIEEIRIKRFSSYNGRIHMDVHSRVTYNGVDRDIDENLHSTKYDGRWSIHYIEFR	1.01
SEEDTMAKTLTKMEIELLRTGDEDLLWRLADPNVKLHINGRDLHGRETFEEWMKRFLEQVDVLRIEHREIRTAEGHLELDMHVDSYFDGVRFTTRLIVEVIKVDGRWFIRFREEQ	1.21
DETKEQSDEFIRIWVKARRTGDEHKLRRLIDPNVRVLINGKDLIGMDRALEIIEMFRKEFGIDHMHFTVRHVDIFNGVAISDFKVEINFNGREHEFTTHLVNLKIDGVWHTHSMEFH	0.546
HDRKREIDHVLKLWINHFKTGDEDFHERNMDPHVRLHQGNYETHGREEVKKFLKRLFDEFGADHIHIRDYRIDVQGDKITIVMEVEIRVGNYRIDIEFILYVAKVDGKWHVHHYEIRNH	1.06
TELEEEVERLMEIFHKAFETGDEHELKRLADPHVRLDFNGRDIHGMDFIIREWLKIKNMRFRIHLDHVELQGEKVHIDGKVEEDFDGVHRHHRVILIWEKYDGRWHHKRMHVK	1.43
EEEDDVLHEFLREFIHFFSTGDFDHIIEMLDPNTQQHVGDKINIGREEWKHWLKFHLDRLGVDQVRVHVRRVRFFNGRVELNIELRQGDYVFDARILALKVDGRWLLESVEIK	2.82
TEEEELAHHLVRLLIELWRTGDEEILRHLADPNVKLIYGDKTDHGREKSHRWMKELLDRYDHVEIIIRREEVQGEKAHSDVELVVNINGVREVYEVHLHFIVVNGKIREERIEVR	0.989
SEEEDMARHFNELFIKMLKTGNEEEIKKMADPEVRIIIDVGDYIERDHGWEVLKREREWLGIKHIDIERAEIRVFDGRVHLKLDGRSNVNGKEIEVEIINDTEKINGRWRMKNLRYIFK	1.08
SDEEEYTRKAIERWIKDFITGNEDLIRKFADPNTRMEWNGKEHHGMELMVKVLKREIHEIRLQKFDVHHVEIYNGRAIVHLKLHGTIDGREETLDVIIFSEKINGQWRVEQLSIR	1.39
SEEEEETRKFAHDLVNIHRTGDERKINDLFDPHVRVHIGNKEIVGRELFARWMHEFLLKHGFTEEIRIDDVDLYGNKAHIDGTLIIRINGVEHRHRVELIVNKINGKWLMEYVRVR	1.6
DEEHRSSHHAVEVQFRVLHTGDFHDLRRQLDPDVKFHIDGVNDHGREVFEERVRELGIKHLLIEDHHVEIQGEWAHLRMKGLMEINGKEIKLHIRYLLLKVNGRWSAHTVSIHLE	1.36
DERQHHAENFHELFFRWVETGDWENQRELADPNMRVDLVVNGVELHDHGMDSFTKRLHELRLHHLDIRSVHYVNGRIDSDIRVDGVIDGRRIDTHMRLHLRVINGKMREIRIQID	1.33
DEEHREMRDVLDELLEAFHTGDEHSLNRYADPHARHHVNGKEYHGRELMVKIWMDLGIDHVHLEEIHLQGEKLHMDTRVTVNGRTIKVTIIILKINGRWKLTHVEIK	0.958
SEDEHDARHAIELFLRSMETGDEQSIWELADPHTLSDIDGVKLHGRDLWITFLRRYSETLGVDRVIVQVERVEVQGDKVRSHIRLHINGVTLNSRVHAEKINGVWLNRKVEFG	1.3
SEEEERSERSLKHLLKTELTGNEEEFWRLADPNAKIEVIIDGVRISDHGREAIIRLWRFMGFDHLIFRHIHVHIQGDKMDVHIQGESRIGDKEMRTTIFLHVIKINGRWINHTLIIEQK	1.24
DERERDARKAVKDFIESIRTGDEDEIEKLLDPHVRVDAPNHERHGREEVVEELREMRIEIRDVRFRHIHVQGNKIEVHVRVHGSLMINGREYRIDTTMIIIMEKIDGRWILTHIEEK	1.62
SEEEERAEELVRLWEHDLKTGNEHLLRELMDPNTRLVVNGRHTHGREHAVNILLQFVEEWRIESVHLHRWRVIGDKIDLDIHIHGRINGVEHHIKSILVLVKINGKWLIHTIVIH	1.02
SEEEDLHRHIMRLFLEWVLTGDEEDLYHFADPHTQFRYGDYELHGMEKIVEEILRFTHELRITHFTIHQMDVFNGKAESDVEWHKDVNGQEVRFRLKLILIVINGRTKSIEIRHK	1.23
DEEEELLRRLIKMLLHLMRTGDEDETANLLDPNVRIEWNGRTFHGREEAKRWLFELLSRVDVVKDIKIHDYDRYGDFVLLDVRLHGEIDGVPTETIFIIIIRKINGRWMIHQIYLE	1.42
TEDEKIAKDTLEEITEALATGDEDQLNRLMDPNVKIFFNGQEIHGRHDSVKYWREIRIRDSHIIIRHVDIQGDKIRLDGEYQLRGEIDGQEIERTMHVRLFMHKVNGRWIVRRQVWG	1.56
DEDEEASKIFWEIWLHNVRTGDEHAINELVDPHVKMVYGDKTFHGMKMLERLYRELGVKHMEVRLDDERLINGVLTLDTRLIIRVDGRTIDIKTEIIALKVNGKWVVKSITYR	1.1
HEDEESMEHSIRRLIQAIETGDFHELTELADPHVKLTIGDKEYIGREQWEKTLRDLGIDHFDVKRSKLIGDYARVDGKVNVNGQFRDTTVIMKKVDGKWLIRSWHVH	1.91
DEEEDTARFLMELILHDLETGDEERLFRLMDPHTRLDIDGQQYHGRELVLQLHETLLERWGVERVEAFLRRTEIQGEKVLSDVHRHFNGVTVKTHIVLEKFNGRWSTKTLEYK	0.6
SEDDESLKRHIDLLLRVLETGNEEDLFRMIDPDAKMDWNGVDNHGMELIHKVWHELGLSNVRSHTEDFRVVGDKAEIHIRVEFNGRHHRVEIHTLKINGRWRVRRFHIR	2.4
DERHDDSRDLAHIFLHLLHTGDEDTIQEYLDPNAKYTLNINGVRVIMHGRETITRHWKEWLDKFKNATIHINDSTVQGDKVHNHTSMEINGQTHNTWIVVVVFNGKVRMIIVDVI	1.29
